First the molecules themselves.
B1: Syntaxin-binding protein 4, residues 493 to 538; numbered along this chain, Q6ZWJ1 (parent)
chain: LDMDCLPYGWEEAYTADGIKYFINHVTQTTSWIHPVMSVLNLSRSE

± gives the uncertainty stated by the source.

The data set covers variants of B1. Nature of the data set: abundance fitness (aPCA) (normalised: wild type 0, dead -1); higher = more abundant; growth selection in yeast, the domain comes from the species named. The following applies: Homo sapiens.
T29M: the abundance fitness was -0.789 ± 0.19.
As to T29H, the abundance fitness is -0.847 ± 0.13.
In the case of T29C, the abundance fitness stood at 0.271 ± 0.12.
In the case of T29D it was -0.777 ± 0.17.
In the case of T29A, the abundance fitness is -0.486 ± 0.15.
Turning to T29N, the abundance fitness is -0.759 ± 0.14.
Regarding T29Y, the abundance fitness is -0.61 ± 0.13.
As to T29Q, the abundance fitness was -0.956 ± 0.39.
Next, T29R: -0.594 ± 0.14; T29G: -0.777 ± 0.24.
For the variant T29F, the abundance fitness is -0.674 ± 0.12.
In the case of P35A, the abundance fitness is -1.01 ± 0.11.
In the case of P35R it was -0.88 ± 0.097; in that of P35H, -0.83 ± 0.15; in that of P35Y, -0.369 ± 0.15.
In the case of P35S it was -0.661 ± 0.11; in that of P35N, -0.862 ± 0.18.
Next, P35E: -0.634 ± 0.15; P35F: -0.895 ± 0.16; P35Q: -0.72 ± 0.14.
Consider P35I, for which the abundance fitness was -0.82 ± 0.16.
In the case of P35V it was -0.882 ± 0.1; in that of P35M, -0.814 ± 0.14; in that of P35T, -0.686 ± 0.16.
Turning to P35W, the abundance fitness was -0.775 ± 0.16.
With P35C, the abundance fitness was -1.06 ± 0.21.
In the case of P35K it was -0.533 ± 0.15.
In the case of R44W it was -0.527 ± 0.15; in that of R44S, 0.096 ± 0.087; in that of R44V, -0.147 ± 0.085.
Next, R44M: -0.292 ± 0.15; R44E: 0.376 ± 0.11; R44L: -0.512 ± 0.11.
Take R44H: the abundance fitness is -0.287 ± 0.15.
R44D: the abundance fitness is 0.169 ± 0.12.
For the variant R44N, the abundance fitness is -0.104 ± 0.14.
Next, R44Y: -0.109 ± 0.14; R44G: 0.377 ± 0.077; R44K: -0.162 ± 0.14.
In the case of R44C it was 0.016 ± 0.11; in that of R44F, -0.881 ± 0.18; in that of R44P, 0.041 ± 0.12.
In the case of R44I it was -1.3 ± 0.33; in that of R44T, -0.285 ± 0.13.
Take R44A: the abundance fitness was -0.134 ± 0.098.
In the case of R44Q it was -0.063 ± 0.13; in that of Q28L, -1 ± 0.13; in that of Q28W, -0.695 ± 0.13.
Next, Q28T: -0.81 ± 0.13; Q28H: -0.204 ± 0.13.
Next, Q28R: -0.316 ± 0.086; Q28K: -0.027 ± 0.13.
As to Q28N, the abundance fitness came to 0.159 ± 0.12.
In the case of Q28V it was -0.789 ± 0.098; in that of Q28P, -0.793 ± 0.14.
In the case of Q28S it was -0.312 ± 0.091.
For Q28M, the abundance fitness came out at 0.031 ± 0.14.
Next, Q28I: -0.664 ± 0.16; S38W: -0.264 ± 0.1.
With S38H, the abundance fitness was -0.678 ± 0.21.
For the variant S38I, the abundance fitness was -0.845 ± 0.23.
In the case of S38L it was -0.78 ± 0.11; in that of S38A, -0.649 ± 0.1.
In the case of S38F, the abundance fitness is -0.531 ± 0.13.
Next, S38K: -0.479 ± 0.11; S38T: -0.75 ± 0.13; S38C: -0.567 ± 0.14.
In the case of S38N it was -0.046 ± 0.13; in that of S38V, -0.502 ± 0.094; in that of S38D, -0.004 ± 0.13.
In the case of S38P it was -0.141 ± 0.097.
Regarding S38Y, the abundance fitness is -0.376 ± 0.14.
As to S38E, the abundance fitness was -0.693 ± 0.13.
For the variant S38Q, the abundance fitness was -0.697 ± 0.15.
In the case of S38R it was -0.418 ± 0.085; in that of S38M, -0.663 ± 0.13.
Next, N41K: -0.635 ± 0.15; N41G: -0.215 ± 0.083; N41W: -0.197 ± 0.093.
In the case of N41E, the abundance fitness was -0.227 ± 0.1.
For N41C, the abundance fitness was -0.236 ± 0.14.
Next, N41T: -0.23 ± 0.12.
Next, N41L: -0.684 ± 0.1.
In the case of N41A it was -0.313 ± 0.087; in that of N41F, -1.02 ± 0.2.
In the case of N41V, the abundance fitness is -0.694 ± 0.098.
In the case of N41H it was -0.681 ± 0.2.
On to N41M, for which the abundance fitness was -0.403 ± 0.11.
Consider N41P, for which the abundance fitness was -0.38 ± 0.11.
In the case of N41Q it was -0.514 ± 0.14; in that of N41R, -0.493 ± 0.096; in that of N41S, -0.227 ± 0.09.
With N41D, the abundance fitness is 0.174 ± 0.12.
Next, H34G: -0.822 ± 0.1; H34N: -0.141 ± 0.13.
Take H34V: the abundance fitness was -1 ± 0.14.
As to H34Q, the abundance fitness is -0.555 ± 0.15.
In the case of H34Y, the abundance fitness was -0.689 ± 0.15.
In the case of H34R it was -0.488 ± 0.082; in that of H34I, -0.724 ± 0.19; in that of H34F, -1.14 ± 0.31.
In the case of H34P, the abundance fitness is -0.181 ± 0.11.
Next, H34E: -0.826 ± 0.13.
Next, H34K: -0.686 ± 0.15; H34W: -1.11 ± 0.15.
Take H34S: the abundance fitness is -0.443 ± 0.097.
Next, H34D: -0.54 ± 0.24; H34T: -0.877 ± 0.13; H34C: -0.439 ± 0.12.
For the variant H34M, the abundance fitness was -0.74 ± 0.17.
Next, W32N: -0.342 ± 0.25; W32A: -0.787 ± 0.11.
On to W32E, for which the abundance fitness is -0.628 ± 0.12.
Turning to W32K, the abundance fitness is -0.576 ± 0.12.
Regarding W32C, the abundance fitness is -0.346 ± 0.12.
In the case of W32F, the abundance fitness was -0.558 ± 0.16.
In the case of W32P it was -0.581 ± 0.14.
In the case of W32R it was -0.408 ± 0.085; in that of W32D, -0.539 ± 0.16.
In the case of W32M it was -0.151 ± 0.12; in that of W32S, -0.679 ± 0.11; in that of W32T, -0.872 ± 0.15.
Turning to W32L, the abundance fitness is -0.49 ± 0.097.
For the variant W32Y, the abundance fitness is -0.33 ± 0.17.
As for W32G, the abundance fitness was -0.664 ± 0.089.
Next, W32V: -0.787 ± 0.12.
As to W32H, the abundance fitness was -1.09 ± 0.29.
For the variant W32Q, the abundance fitness is -0.86 ± 0.25.
Take S31N: the abundance fitness is -0.953 ± 0.19.
Consider S31V, for which the abundance fitness was -0.373 ± 0.097.
On to S31L, for which the abundance fitness was -0.788 ± 0.11.
As for S31W, the abundance fitness is -0.922 ± 0.14.
In the case of S31P it was -0.788 ± 0.13.
Next, S31T: 0.199 ± 0.09; S31H: -0.94 ± 0.18.
In the case of S31F it was -0.734 ± 0.12.
S31A: the abundance fitness was -0.799 ± 0.12.
In the case of S31D it was -0.89 ± 0.19.
In the case of S31E it was -0.724 ± 0.16; in that of S31I, -0.633 ± 0.16; in that of S31Y, -0.879 ± 0.18.
As to S31M, the abundance fitness is -0.989 ± 0.14.
In the case of S31C it was -0.698 ± 0.15; in that of S31K, -0.471 ± 0.12; in that of S31R, -0.818 ± 0.1.
Next, S31G: -0.454 ± 0.1.
For S45T, the abundance fitness was -0.089 ± 0.11.
Next, S45M: -0.986 ± 0.29; S45F: -0.759 ± 0.18.
In the case of S45P it was -0.127 ± 0.15; in that of S45L, -0.509 ± 0.11.
In the case of S45W it was -0.914 ± 0.22.
As for S45K, the abundance fitness was -0.169 ± 0.18.
In the case of S45H, the abundance fitness was -0.438 ± 0.16.
Next, S45R: -0.173 ± 0.11; S45E: 0.092 ± 0.18.
Next, S45Y: -0.287 ± 0.13.
Consider S45V, for which the abundance fitness was -0.103 ± 0.11.
Next, S45Q: -0.32 ± 0.2; S45A: -0.186 ± 0.11.
Next, S45D: -0.06 ± 0.14.

(Values after the Human Domainome abundance scans (Beltran et al. 2025).)
